Results as given in patent EP4471048A1, “PEPTIDE INHIBITORS OF INTERLEUKIN-23 RECEPTOR” (Zealand Pharma A/S, priority 2023, dated 2024).
Where two headings read alike, the source gives them in different places. *1 amine or outer side, *2 acyl side, *3 side chain or, on linkers, in order; H or OH if unused. Bridges are numbered along the chain shown (N, C = ends). [ ]: non-standard residue; d: D form. The star is where a group is joined. 4‑Aminomethyl‑phenylacetyl = 4-aminomethyl-phenylacetyl unit, its amine closes the lactam, O=C(Cc1ccc(CN[*:1])cc1)[*:2]; γDab = iso-Dab: Dab joined to preceding residue by its side-chain amine, O=C([C@H](CCN[*:1])N[*:3])[*:2]; Q(pyrrolidin) = modified Gln, O=C(CC[C@H](N[*:1])C(=O)[*:2])N1CCCC1; Propanoyl(3-(3-pyridyl)) = O=C(CCc1cccnc1)*; Phe(4-Me) = Cc1ccc(C[C@H](N)C(=O)O)cc1; 2Nal = N[C@@H](Cc1ccc2ccccc2c1)C(=O)O; AEF = NCCOc1ccc(C[C@H](N)C(=O)O)cc1; 3Pal = N[C@@H](Cc1cccnc1)C(=O)O; Aad = N[C@@H](CCCC(=O)O)C(=O)O; αMeL = CC(C)C[C@](C)(N)C(=O)O; dOrn = NCCC[C@@H](N)C(=O)O; Dab = NCC[C@H](N)C(=O)O

Experiments:
[1] = molecular target: human IL-23R endogenously expressed on DB cells (human) (UniProt Q5VWK5); test: cell-based or functional assay
[2] = molecular target: T1, human IL-23R endogenously expressed on DB cells (human, UniProt Q5VWK5 24-629); test: cell-based or functional assay
T1 sequence (looked up): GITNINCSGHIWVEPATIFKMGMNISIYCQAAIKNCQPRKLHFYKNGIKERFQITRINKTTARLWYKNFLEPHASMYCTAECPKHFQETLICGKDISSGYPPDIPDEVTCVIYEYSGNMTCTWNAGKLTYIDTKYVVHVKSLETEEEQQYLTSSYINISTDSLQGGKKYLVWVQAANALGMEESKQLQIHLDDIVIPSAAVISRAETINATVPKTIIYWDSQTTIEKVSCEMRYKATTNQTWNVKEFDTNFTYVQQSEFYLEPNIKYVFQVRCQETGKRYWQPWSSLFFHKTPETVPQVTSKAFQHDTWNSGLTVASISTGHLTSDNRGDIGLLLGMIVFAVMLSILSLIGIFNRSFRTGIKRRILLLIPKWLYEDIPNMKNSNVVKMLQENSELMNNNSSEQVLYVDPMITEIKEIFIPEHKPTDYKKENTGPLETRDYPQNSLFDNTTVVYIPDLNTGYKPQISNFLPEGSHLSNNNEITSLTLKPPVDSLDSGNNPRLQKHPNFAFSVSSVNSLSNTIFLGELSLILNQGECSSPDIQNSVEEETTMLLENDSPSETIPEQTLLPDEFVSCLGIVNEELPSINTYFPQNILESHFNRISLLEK

[3] = molecular target: T2, Nluc-IL23R fusion protein (human, UniProt Q5VWK5 22-629); test: BRET competition vs TAMRA-labelled peptide, Nluc-IL23R membranes
T2 construct: range 22-629; Stably expressed in HEK293 cells; also called hIL-23R; human IL-23R; not shown: Nanoluc protein (N1371, Promega) at the N-terminus, after a secretion signal
T2 sequence (looked up): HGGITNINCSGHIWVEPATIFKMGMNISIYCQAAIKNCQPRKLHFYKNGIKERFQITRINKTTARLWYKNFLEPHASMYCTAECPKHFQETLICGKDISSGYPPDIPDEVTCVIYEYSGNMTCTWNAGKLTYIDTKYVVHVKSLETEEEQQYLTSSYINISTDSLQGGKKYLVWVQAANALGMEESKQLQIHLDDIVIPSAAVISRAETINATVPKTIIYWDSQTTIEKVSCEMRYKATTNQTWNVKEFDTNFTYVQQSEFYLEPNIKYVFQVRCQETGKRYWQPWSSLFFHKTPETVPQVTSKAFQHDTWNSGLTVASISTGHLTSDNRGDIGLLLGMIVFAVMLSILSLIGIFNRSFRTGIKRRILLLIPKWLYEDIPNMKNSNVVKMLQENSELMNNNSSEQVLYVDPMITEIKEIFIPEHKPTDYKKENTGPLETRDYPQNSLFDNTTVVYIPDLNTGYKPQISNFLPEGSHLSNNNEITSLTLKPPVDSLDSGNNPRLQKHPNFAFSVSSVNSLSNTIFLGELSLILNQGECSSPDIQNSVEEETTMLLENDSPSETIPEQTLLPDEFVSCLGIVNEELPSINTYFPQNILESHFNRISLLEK

[4] = molecular target: T2, Nluc-IL23R fusion protein; test: as above; remark: listed apart in the source
[5] = molecular target: T2, Nluc-IL23R fusion protein; test: BRET competition vs TAMRA-labelled peptide, Nluc-IL23R membranes; Ki by Cheng-Prusoff

human IL-23 (from UniProt Q9NPF7 20-189; P29460 23-328) (ligand)
EC80 of hIL-23 (phospho-STAT3 in DB cells) [1]: 1.7 nM

B1: Compound C (peptide)
peptide: XQTWQCXWXENG
modifications: [Ac]-[Abu](16i)QTWQC(16i)[Y(2-aminoethoxy)]W[2-Me-Lys]ENG-[NH2]; (16i) [2,7] thioether bridge (Abu and Cys form a cystathionine)
hIL-23 (pSTAT3) antagonist % inhibition [2]: 99% | hIL-23 (pSTAT3) antagonist IC50 [2]: 13 nM | % displacement [3]: 102%

B2: Compound 24 (peptide)
peptide: KTVWQE[Phe(4-Me)][2Nal][αMeL][γDab](Propanoyl(3-(3-pyridyl)))
modifications: lactam 1-C, N-6; also: iso-Dab joined to preceding residue via its side-chain amine
hIL-23 (pSTAT3) antagonist % inhibition [2]: 99% | hIL-23 (pSTAT3) antagonist IC50 [2]: 100 nM | % displacement [3]: 96% | IC50 [3]: 280 nM

B3: Ref 146 (peptide)
peptide: [4‑Aminomethyl‑phenylacetyl]SEW[Q(pyrrolidin)][Dab][AEF][2Nal][αMeL]E[Dab]-NH2
modifications: lactam N-10; bridge 3-6; also: (2c) bridge type not defined
hIL-23 (pSTAT3) antagonist % inhibition [2]: 98% | hIL-23 (pSTAT3) antagonist IC50 [2]: 42 nM | % displacement [4]: 105% | IC50 [4]: 1.2 nM | Ki [5]: 1.01 nM

B4: Compound 6 (peptide)
peptide: [dOrn]TVWQE[AEF][2Nal][αMeL][Aad][Dab][3Pal]-NH2
modifications: lactam 1-10, N-6
SMILES: CC(C)C[C@]1(C)NC(=O)[C@H](Cc2ccc3ccccc3c2)NC(=O)[C@H](Cc2ccc(OCCN)cc2)NC(=O)[C@@H]2CCC(=O)N[C@H](CCCNC(=O)CCC[C@@H](C(=O)N[C@@H](CCN)C(=O)N[C@@H](Cc3cccnc3)C(N)=O)NC1=O)C(=O)N[C@@H]([C@@H](C)O)C(=O)N[C@@H](C(C)C)C(=O)N[C@@H](Cc1c[nH]c3ccccc13)C(=O)N[C@@H](CCC(N)=O)C(=O)N2
hIL-23 (pSTAT3) antagonist % inhibition [2]: 104% | hIL-23 (pSTAT3) antagonist IC50 [2]: 0.22 nM | % displacement [3]: 104%
